± gives the standard error. For some assays here: Fewer inactive variants are shown than the library holds.
B1: glmS ribozyme (parent)
chain: AUAAAAGCGCCAGAACUACAGAAAUGUAGUUGACGAGGAGGAGGUUUAUCGAAUUUUCGGCGGAUGCCUCCAAA

Experiments:
Settings in all cases: with glucosamine-6-phosphate
glucosamine-6-phosphate [1] = variants of: B1; assay: kcat; higher = faster cleavage; RNA array
Procedure, shortened: (§1)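 Glucosamine-6-phosphate in HEPES/KCl/Mg(OAc)2 buffer, at 40 μM to 10 mM, was flowed over barcoded ribozyme variants transcribed in situ by E. coli RNA polymerase on sequenced MiSeq chips. Tracking was through a hybridised Cy3 probe at 37 °C. kobs, kcat and KM came from exponential decay fits and weighted Michaelis–Menten fits of normalised per-tile medians.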

glucosamine-6-phosphate [2] = variants of: B1; assay: self-cleavage kobs at 40 uM GlcN6P; higher = faster cleavage; RNA array
Procedure, shortened: as §1

glucosamine-6-phosphate [3] = variants of: B1; assay: KM; higher = weaker cofactor use; RNA array
Procedure, shortened: as §1

glucosamine-6-phosphate [4] = variants of: B1; assay: self-cleavage kobs at 160 uM GlcN6P; higher = faster cleavage; RNA array
Procedure, shortened: as §1

glucosamine-6-phosphate [5] = variants of: B1; assay: self-cleavage kobs at 640 uM GlcN6P; higher = faster cleavage; RNA array
Procedure, shortened: as §1

glucosamine-6-phosphate [6] = variants of: B1; assay: self-cleavage kobs at 2500 uM GlcN6P; higher = faster cleavage; RNA array
Procedure, shortened: as §1

glucosamine-6-phosphate [7] = variants of: B1; assay: self-cleavage kobs at 10000 uM GlcN6P; higher = faster cleavage; RNA array
Procedure, shortened: as §1

Row | Variant | kcat (glucosamine-6-phosphate [1]) [s⁻¹] | self-cleavage kobs at 40 uM GlcN6P (glucosamine-6-phosphate [2]) [s⁻¹] | KM (glucosamine-6-phosphate [3]) [µM] | self-cleavage kobs at 160 uM GlcN6P (glucosamine-6-phosphate [4]) [s⁻¹] | self-cleavage kobs at 640 uM GlcN6P (glucosamine-6-phosphate [5]) [s⁻¹] | self-cleavage kobs at 2500 uM GlcN6P (glucosamine-6-phosphate [6]) [s⁻¹] | self-cleavage kobs at 10000 uM GlcN6P (glucosamine-6-phosphate [7]) [s⁻¹]
1 | G37C C68U | 1.59e-05 ± 1.1e-06 | < 1e-05 |  |  |  |  | 
2 | G32A U49A | < 1e-05 |  |  |  |  |  | 
3 | A39U A42U | 0.00653 ± 0.0017 | 0.000312 ± 7.2e-05 | 1400 ± 530 | 0.000582 ± 8.8e-05 | 0.00223 ± 0.00042 | 0.00602 ± 0.0014 | 0.00529 ± 0.00096
4 | U31C U49G | 7.25e-05 ± 2.8e-06 |  | 1610 ± 200 |  | 2.25e-05 ± 9.3e-06 | 4.27e-05 ± 7.7e-06 | 6.33e-05 ± 9.1e-06
5 | G32U G41A | 0.000221 ± 1.2e-05 |  | 4720 ± 590 |  | 2.98e-05 ± 1.1e-05 | 7.3e-05 ± 1.5e-05 | 0.00015 ± 1.4e-05
6 | A39U G40U | 0.00237 ± 0.00036 | 9.94e-05 ± 1.5e-05 | 997 ± 220 | 0.000285 ± 4.1e-05 | 0.00112 ± 0.00016 | 0.00163 ± 0.00025 | 0.00209 ± 0.00044
7 | A39U G40C | 0.00382 ± 0.00081 | 0.00011 ± 1.5e-05 | 1850 ± 560 | 0.000253 ± 4.7e-05 | 0.00089 ± 0.0001 | 0.00244 ± 0.00039 | 0.00324 ± 0.00043
8 | G37A U65G | 0.000263 ± 1.3e-05 |  | 3870 ± 390 |  | 4.13e-05 ± 1.5e-05 | 0.000102 ± 1.2e-05 | 0.000191 ± 2.3e-05
9 | U31G G37C | 2.89e-05 ± 1.4e-06 | < 1e-05 | 1380 ± 340 |  |  |  | 
10 | U31C U47C | 0.000503 ± 6.2e-05 |  | 2160 ± 430 |  | 0.000111 ± 2e-05 | 0.000269 ± 5.7e-05 | 0.00042 ± 0.00011
11 | A39U A53G | 0.0183 ± 0.0065 | 0.000648 ± 6.7e-05 | 1410 ± 620 | 0.00141 ± 0.00023 | 0.0052 ± 0.00085 | 0.0187 ± 0.0064 | 0.0166 ± 0.0029
12 | A39U A53C | 0.00528 ± 0.0015 | 9.69e-05 ± 1.1e-05 | 2890 ± 1100 | 0.000314 ± 4.2e-05 | 0.000759 ± 8.9e-05 | 0.00228 ± 0.00027 | 0.00454 ± 0.00047
13 | A39C U54C | 0.00666 ± 0.0019 | 0.000105 ± 2.5e-05 | 2400 ± 1100 |  | 0.00125 ± 0.0003 | 0.00481 ± 0.00084 | 0.00475 ± 0.00095
14 | A39C U54A | 0.00479 ± 0.0015 | 0.000143 ± 4.1e-05 | 1410 ± 630 | 0.000483 ± 0.00013 | 0.00157 ± 0.00028 | 0.00219 ± 0.00068 | 0.00615 ± 0.0015
15 | A39U C68U | 0.00901 ± 0.0018 | 0.000444 ± 8.6e-05 | 1340 ± 420 | 0.000829 ± 9e-05 | 0.00309 ± 0.00026 | 0.00636 ± 0.00063 | 0.00694 ± 0.0011
16 | G37U U69C | 1.14e-05 ± 5.4e-06 |  |  | < 1e-05 |  |  | < 1e-05
17 | G37U A64C | < 1e-05 | < 1e-05 |  |  |  |  | 

Row | Variant | kcat (glucosamine-6-phosphate [1]) [s⁻¹] | self-cleavage kobs at 40 uM GlcN6P (glucosamine-6-phosphate [2]) [s⁻¹] | KM (glucosamine-6-phosphate [3]) [µM] | self-cleavage kobs at 160 uM GlcN6P (glucosamine-6-phosphate [4]) [s⁻¹] | self-cleavage kobs at 640 uM GlcN6P (glucosamine-6-phosphate [5]) [s⁻¹] | self-cleavage kobs at 2500 uM GlcN6P (glucosamine-6-phosphate [6]) [s⁻¹] | self-cleavage kobs at 10000 uM GlcN6P (glucosamine-6-phosphate [7]) [s⁻¹]
18 | A33G A36C | 1.58e-05 ± 7.1e-06 | < 1e-05 |  | < 1e-05 | < 1e-05 |  | < 1e-05
19 | G38U U65A | < 1e-05 |  |  | < 1e-05 |  |  | 
20 | U31G A48C | 0.000112 ± 1.1e-05 |  | 2550 ± 670 |  |  | 5.79e-05 ± 1.5e-05 | 8.83e-05 ± 1.7e-05
21 | G37A A52U | 5.16e-05 ± 5.1e-06 |  | 6790 ± 1600 | < 1e-05 |  |  | 3.07e-05 ± 8.4e-06
22 | G38A C70G | 1.82e-05 ± 1.9e-06 |  |  |  |  |  | 
23 | G37C A52G | < 1e-05 | < 1e-05 |  |  |  |  | 
24 | G32U A33U | < 1e-05 | < 1e-05 |  | < 1e-05 |  | < 1e-05 | 
25 | G37A A39U | 0.00167 ± 0.00028 |  | 3280 ± 870 | 6.13e-05 ± 1.5e-05 | 0.00028 ± 4e-05 | 0.000838 ± 9.2e-05 | 0.00116 ± 0.00015
26 | A39U U45G | 0.00909 ± 0.0007 | 0.000146 ± 2e-05 | 2650 ± 300 | 0.000471 ± 8.8e-05 | 0.00165 ± 0.00028 | 0.00481 ± 0.00079 | 0.00711 ± 0.00075
27 | C34G C70A | 1.99e-05 ± 6.8e-06 |  |  |  |  |  | 
28 | A39U G41C | 2.16e-05 ± 4.5e-07 | < 1e-05 | 1200 ± 150 |  |  |  | 1.93e-05 ± 7.7e-06
29 | A36C U65G C70U | 1.94e-05 ± 5.3e-06 |  |  |  |  |  | 
30 | A36U U69A | 4.58e-05 ± 1.6e-05 | 5.11e-05 ± 1.6e-05 |  |  |  | 7.35e-05 ± 2.7e-05 | 
31 | C34U G63C | < 1e-05 |  |  |  | < 1e-05 | < 1e-05 | 
32 | A39G G66U | 0.00533 ± 0.00016 | 0.000107 ± 1.9e-05 | 1960 ± 79 |  | 0.00133 ± 0.00029 | 0.00285 ± 0.0009 | 0.00451 ± 0.00097
33 | G35C A52G | < 1e-05 |  |  | < 1e-05 | < 1e-05 |  | < 1e-05

Source: the supplement of paper PMC7125110
